The values that follow are results of earlier work, collected in PMC6482830.

pKd: −log10 of the molar value.

The series deals with eIF4E (Homo sapiens) (UniProt P06730). The series can be described thus: ITC. For orientation: Isothermal titration calorimetry measures the heat released or taken up as one component is titrated into another.
UniProt P06730, sequence (P06730 2-217): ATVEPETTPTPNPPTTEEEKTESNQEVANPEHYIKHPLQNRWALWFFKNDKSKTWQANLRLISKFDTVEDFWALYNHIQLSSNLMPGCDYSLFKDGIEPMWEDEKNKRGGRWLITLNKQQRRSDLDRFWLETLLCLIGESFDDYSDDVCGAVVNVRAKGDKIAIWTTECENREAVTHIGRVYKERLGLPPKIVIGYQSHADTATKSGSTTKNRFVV

One may read the pKd as the negative decadic logarithm of the Kd, by convention in mol/L. As to 4E-BP1 peptide (from UniProt Q13541), the pKd is 7.30.
